Results as given in patent publication US20230312722A1 (NONA BIOSCIENCES SUZHOU, published 2023).

What was measured:
Assay in all cases: ELISA, plate coated with 1 µg/mL B7 family protein
[1] = biological target: T1, Human PD-L1/B7-H1 Protein, His Tag (Acro PD1-H5229) (human, UniProt Q9NZQ7 19-238)
T1 construct: Bought protein
Procedure: (§1) The proteins of the B7 family (see Table 9-1 for details) were each diluted to 1 μg/mL with PBS, added to a 96-well plate (Corning, #9018) at 100 μL per well, and incubated overnight at 4° C. After the liquid was discarded, the plate was washed 3 times with PBST buffer (pH 7.4, containing 0.05% tween-20), and 250 μL of 2% BSA blocking buffer was added. The plate was incubated at 37° C. for 1 hour. The blocking buffer was discarded, and the plate was washed 3 times with PBST buffer (pH 7.4, containing 0.05% Tween-20). The test antigen-binding protein was diluted to 2 concentrations: 10 nM and 1 nM, and added at 100 μL per well. The plate was incubated at 37° C. for 1 hour. An isotype antibody was taken as a control. After the plate was washed 3 times with PBST buffer (pH 7.4, containing 0.05% Tween-20), the plate was added with a 5000-fold diluted goat anti-human F(ab′)₂ HRP secondary antibody (Jackson ImmunoResearch, 109-035-097), and incubated at 37° C. away from light for 1 hour. After the plate was washed 3 times with PBST buffer (pH 7.4, containing 0.05% Tween-20), TMB (Biopanda, #TMB-S-003) was added at 100 μL/well. The plate was left away from light at room temperature for about 30 minutes. The reactions were terminated by adding 50 μL of stop buffer (BBI life sciences, #E661006-0200) to each well, and the absorbance values at 450 nm (OD450) was measured using a microplate reader (PerkinElemer, #Enspire).

[2] = biological target: T2, CD275/ICOS ligand Protein, Human, Recombinant (Fc Tag) (Sino Biological 11559-H02H) (human, UniProt O75144 19-258)
T2 construct: Bought protein; also called B7H2
T2 sequence (looked up): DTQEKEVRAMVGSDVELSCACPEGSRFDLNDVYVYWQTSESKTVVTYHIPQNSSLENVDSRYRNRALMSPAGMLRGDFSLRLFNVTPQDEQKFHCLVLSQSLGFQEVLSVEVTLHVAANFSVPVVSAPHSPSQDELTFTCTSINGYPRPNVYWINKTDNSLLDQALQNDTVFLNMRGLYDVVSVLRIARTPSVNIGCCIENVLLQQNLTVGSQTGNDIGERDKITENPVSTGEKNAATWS
Procedure: as §1

[3] = biological target: T3, Human B7-1/CD80 Protein, Fc Tag (Acro B71-H5259) (human, UniProt P33681 35-242)
T3 construct: Bought protein
T3 sequence (looked up): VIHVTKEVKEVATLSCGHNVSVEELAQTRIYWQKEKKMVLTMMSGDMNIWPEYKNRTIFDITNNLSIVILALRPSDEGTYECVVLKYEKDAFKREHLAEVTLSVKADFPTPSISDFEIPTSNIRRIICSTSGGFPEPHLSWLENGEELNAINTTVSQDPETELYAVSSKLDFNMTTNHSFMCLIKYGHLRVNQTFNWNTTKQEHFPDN
Procedure: as §1

[4] = biological target: T4, Human B7-2/CD86 Protein, Fc Tag (Acro CD6-H5257) (human, UniProt P42081 26-247)
T4 construct: Bought protein
T4 sequence (looked up): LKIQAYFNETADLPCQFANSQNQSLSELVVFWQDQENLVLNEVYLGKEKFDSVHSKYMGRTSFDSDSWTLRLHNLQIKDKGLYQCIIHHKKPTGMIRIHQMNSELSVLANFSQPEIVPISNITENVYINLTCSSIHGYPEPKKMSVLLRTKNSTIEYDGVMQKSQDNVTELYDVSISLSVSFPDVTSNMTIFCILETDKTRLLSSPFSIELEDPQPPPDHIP
Procedure: as §1

[5] = biological target: T5, Recombinant human VISTA/B7H5/PD-1H Fc Chimera (R&D 7126-B7-050) (human, UniProt Q9H7M9 33-194)
T5 construct: Bought protein
T5 sequence (looked up): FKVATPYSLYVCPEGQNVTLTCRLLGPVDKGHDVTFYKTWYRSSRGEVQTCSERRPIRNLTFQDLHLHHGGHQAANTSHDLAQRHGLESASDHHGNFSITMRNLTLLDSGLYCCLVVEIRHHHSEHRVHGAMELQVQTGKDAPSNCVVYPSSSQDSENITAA
Procedure: as §1

[6] = biological target: T6, B7-H6/NCR3LG1 Protein, Human, Recombinant (Fc Tag) (Sino Biological 16140-H02H) (human, UniProt Q68D85 25-262)
T6 construct: Bought protein
T6 sequence (looked up): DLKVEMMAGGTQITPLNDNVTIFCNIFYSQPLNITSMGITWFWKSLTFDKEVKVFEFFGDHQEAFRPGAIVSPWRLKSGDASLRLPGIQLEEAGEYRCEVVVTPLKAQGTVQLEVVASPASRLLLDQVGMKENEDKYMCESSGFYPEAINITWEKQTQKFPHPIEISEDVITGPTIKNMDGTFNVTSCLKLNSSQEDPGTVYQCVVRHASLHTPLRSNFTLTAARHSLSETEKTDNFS
Procedure: as §1

[7] = biological target: T7, B7-H3/CD276 Protein, Human, Recombinant (ECD, Fc Tag) (Sino Biological 11188-H02H) (human, UniProt Q5ZPR3 29-466)
T7 construct: extracellular domain; Bought protein
T7 sequence (looked up): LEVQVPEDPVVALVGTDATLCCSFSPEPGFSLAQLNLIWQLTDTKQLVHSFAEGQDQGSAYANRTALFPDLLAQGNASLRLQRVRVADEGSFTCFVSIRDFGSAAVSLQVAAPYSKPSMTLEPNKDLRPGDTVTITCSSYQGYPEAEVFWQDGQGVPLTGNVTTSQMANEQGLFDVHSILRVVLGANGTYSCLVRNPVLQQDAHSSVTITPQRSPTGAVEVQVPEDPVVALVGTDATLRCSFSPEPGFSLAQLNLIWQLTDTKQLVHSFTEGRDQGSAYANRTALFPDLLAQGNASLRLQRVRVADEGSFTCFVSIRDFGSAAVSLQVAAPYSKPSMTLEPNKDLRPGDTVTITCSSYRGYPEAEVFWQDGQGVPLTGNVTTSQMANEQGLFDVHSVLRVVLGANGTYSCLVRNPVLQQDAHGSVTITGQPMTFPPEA
Procedure: as §1

[8] = biological target: T8, Human B7-DC/PD-L2/CD273 Protein, Recombinant (Fc Tag) (Sino Biological H10292-H02H) (human, UniProt Q9BQ51 20-219)
T8 construct: Bought protein
T8 sequence (looked up): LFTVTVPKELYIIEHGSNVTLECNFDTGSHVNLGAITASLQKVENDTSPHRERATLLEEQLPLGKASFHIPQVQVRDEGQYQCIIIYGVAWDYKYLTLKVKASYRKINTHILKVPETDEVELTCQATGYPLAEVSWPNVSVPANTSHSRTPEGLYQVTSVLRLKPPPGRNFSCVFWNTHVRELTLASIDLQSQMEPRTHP
Procedure: as §1

[9] = biological target: T9, Recombinant human B7H7/HHLA2 Fc Chimera (R&D 8084-B7-050) (human, UniProt Q9UM44 23-344)
T9 construct: Bought protein
T9 sequence (looked up): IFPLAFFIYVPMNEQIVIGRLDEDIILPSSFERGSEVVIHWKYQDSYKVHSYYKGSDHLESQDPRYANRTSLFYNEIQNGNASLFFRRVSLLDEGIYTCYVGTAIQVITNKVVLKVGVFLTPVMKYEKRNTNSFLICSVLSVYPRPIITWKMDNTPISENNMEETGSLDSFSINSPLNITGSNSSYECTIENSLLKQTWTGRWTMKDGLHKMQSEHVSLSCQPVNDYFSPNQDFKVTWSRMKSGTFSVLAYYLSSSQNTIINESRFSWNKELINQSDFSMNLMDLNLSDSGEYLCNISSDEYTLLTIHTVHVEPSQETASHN
Procedure: as §1

Measured: binding result

T1 sequence (Q9NZQ7 19-238 limits assumed): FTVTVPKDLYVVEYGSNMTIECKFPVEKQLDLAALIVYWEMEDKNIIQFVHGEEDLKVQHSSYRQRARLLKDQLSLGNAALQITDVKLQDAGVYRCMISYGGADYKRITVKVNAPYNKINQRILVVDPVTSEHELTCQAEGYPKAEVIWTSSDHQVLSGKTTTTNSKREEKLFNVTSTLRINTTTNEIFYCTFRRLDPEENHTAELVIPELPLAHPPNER

B1: PR002418 (antibody, human IgG1, kappa, V domains shown)
VH: QVQLVESGGGVVQPGRSLRLSCAASGFTFRSFGMHWVRQAPGKGLEWVAVISYDASNEYYADSVKGRFIISRDNSKDTLYLQMNSLRAGDTAVYYCAKGGGLRWYFAYWGQGTLVTVSS
VL: EIVMTQSPATLSVSPGERATLSCRASQSISSNLGWYQQKPGQAPRLLIYGASTRATGIPARFSGSGSGTEFTLTISSLQSEDFAVYYCQQYQSWPPLTFGGGTKVEIKR
notes: PTM variant/DE mutant of PR001476 (H: G55A; L: N92Q; Fc S239D, I332E), human IgG1
no binding (tested: 10 nM): [1] | [2] | [3] | [4] | [5] | [6] | [7] | [8] | [9]
